Assay: yeast display, Sf9 membrane polyspecificity reagent, FACS + sequencing; frameworks hold sequencing errors
Outline: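 A nanobody's polyreactivity label depends on the gate it was sorted from. Yeast display cells were stained with 10% biotinylated, detergent-solubilized Sf9 membrane reagent for 1 hour at 4 °C, enriched on streptavidin microbeads and sorted by FACS. The low and high (top ~1%) gates were set on anti-HA fluorescence for expression and streptavidin fluorescence for reagent binding.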
In the case of “QVQLVESGGGLVQAGGSLRLSCAASGTFWWYAMGWYRQAPGKERELVASINRGGSTYYADSVKGRFTISRDNAKNTVYLQMNSLKPEDSAVYYCNARWIGRLTPYRRATYYYWGQGTQVTVSS”, the “polyreactivity (PSR sort gate)” value is reported as “high polyreactivity”. In the case of “QVQLVESGGGLVQAGGSLRLSCAASGTFYYNTMGCYRQAPGKERELVAAITSGGRTYADSVKGRFTISRDNAKNTVYLQMNSLKEEDTAVYYCAVDKPYPYRIIIWYEYDYWGQGNQVTVSS”, the “polyreactivity (PSR sort gate)” value is reported as “low polyreactivity”. With “QVQLVESGGGLVQAGGSLRLSCAASGTIFIVNAMGWYRQAPGKERELVAAITQGDGSTYYADSVKGRFTISRDNAKNTVYLQMNSLKPEDTAVYYCAVGDLVAYTWQEYNYWGQGTQVNVSS” the “polyreactivity (PSR sort gate)” value was “low polyreactivity”. With “QVQLVESGGGLVQAGGSLRLSCAASGTIFSDYAMGWYRQAPGKERELVATITSRGGSTHYADSVKGRFTISRDNAKNTVYLQMNSLKPEDTAVYYCIVRRLYVYTITSGDVDYDYWGQGTQVTVSS” the “polyreactivity (PSR sort gate)” value was “low polyreactivity”. With “QVQLVESGGGLVQAGGSLRLSCAASGTIFTNAMGCYRQEPGKERQLVAAISSSGGSTYYADSVKGRFTISRDNAKNTVYLQMNSLKPEDTAVYYCAADGEVSLWTGYDYDYWGKGTQVTVSS” the “polyreactivity (PSR sort gate)” value was “low polyreactivity”. In the case of “QVQLVESGGGLVQAGGSLRLSCAASGTIFYINAMGWYRQAPGKERELVAAIRSGGSTNYADSVKGRFTISRDNAKNTVYLQMNSLKPEDTAVYYCNARSRSYVPYYYWGQGTQVTVSS”, the “polyreactivity (PSR sort gate)” value is reported as “high polyreactivity”. For “QVQLVESGGGLVQAGGSLRLSCAASGTILRPYAMGWYRQAPGKERELVAAISTSGGRTFYADSVKGRFTISRDNAKNTVYLQMYSLNPEDTAVYYCAAVGYRFGSNYWGQGTQVTVSS”, the “polyreactivity (PSR sort gate)” value was “high polyreactivity”. For “QVQLVESGGGLVQAGGSLRLSCAASGTMGWYRQAPGKERELVAAISQSGGSTYYADSVKGRFTISRDNAKNTVYLQMNSLKPEDTAVYYCAVDPRYGHPRRDYWGQGTQVTVSS”, the “polyreactivity (PSR sort gate)” value was “low polyreactivity”. For “QVQLVESGGGLVQAGGSLRLSCAASGTTFAGNAMGWYRQAPGKEREFVAAITISGGSTYYADSVKGRFTISRDNAKNTVYLQMNRLKPEDTAVYYCAADYAYYVSLPSRFVYAGYDYWGQGTQVTVSS”, the “polyreactivity (PSR sort gate)” value was “low polyreactivity”. For “QVQLVESGGGLVQAGGSLRLSCAASGTTFEVNAMGWYRQAPGKERELVATITRSGGSTYYADSVKGRFTISRDNAKNTVYLQMNSLKPEDTAVYYCNALWELKWGQGTQVTVSS”, the “polyreactivity (PSR sort gate)” value was “low polyreactivity”. In the case of “QVQLVESGGGLVQAGGSLRLSCAASGTTFGRNAMGWYRQAPGKERELVAAINSGGGTYYADSVKGRFTISRDNAKNTVYFQMNSLKPEDTAVYYCAAARRYGNYDYWGQGTQVTVSS”, the “polyreactivity (PSR sort gate)” value is reported as “low polyreactivity”. For “QVQLVESGGGLVQAGGSLRLSCAASGTTFGRNTMGWYRQAPGKERELVAAISKSGGSTRYADSVKGRFTISRDNAKNTVYLQMNRLKAEDTAFYYCAARVYSLGYGGDYWGQGTQVTVSS”, the “polyreactivity (PSR sort gate)” value was “high polyreactivity”. For “QVQLVESGGGLVQAGGSLRLSCAASGTTFSPNAMGWYRQAPGKERELVAAIRGSGSRTYADSVKGRFTISRDNAKNSVYLQMNSLKPEDTAVYYCAAEWIYDTDYWYYSYYYWGQGTQVTVSS”, the “polyreactivity (PSR sort gate)” value was “low polyreactivity”. In the case of “QVQLVESGGGLVQAGGSLRLSCAASGTTIGVNAMGWYRQAPGKERDLVAAISRRGASTYYADSVKGRFTISLDNAKNTVYLQMNSLKPEETAVYYCAKAQVHDYIVSMDRYGYWGQGTQVTVSS”, the “polyreactivity (PSR sort gate)” value is reported as “low polyreactivity”. For “QVQLVESGGGLVQAGGSLRLSCAASGTTNDYYDMGWYRQAPGKERELDAAISSGGDSTYYADSVMGRFTISRDNAKNTVYLQMNSLKPEDTAVYYCAAAVYYGQSVWYYYWGQGTEVTVSS”, the “polyreactivity (PSR sort gate)” value was “high polyreactivity”. In the case of “QVQLVESGGGLVQAGGSLRLSCAASGVNAMGWYRQAPGKEREFVAAITSIGGSTYYADSVKGRFTISRDNAKNTVYLQMNSLKPEDTAVYYCNTDRGPVKVSPLYESWGQGTQVTVSS”, the “polyreactivity (PSR sort gate)” value is reported as “low polyreactivity”. For “QVQLVESGGGLVQAGGSLRLSCAASGVTFHGYTMGWYRQAPGKERELVAAITSGGGTNYADSVKGRFTISRDNAKNTVYLQMNSLKPEDTAVYYCAAGFHKRVTPEILYDYWGQGTQVTVSS”, the “polyreactivity (PSR sort gate)” value was “low polyreactivity”. For “QVQLVESGGGLVQAGGSLRLSCAASGYIFCKYAMGWYRQARGKERELVAGITRGGTTYYADSVKGRFTISRDNAKNTVYLQMNSLKPEVTAVYYCARDLLGVSSSRYNSWGQGTQVTVSS”, the “polyreactivity (PSR sort gate)” value was “high polyreactivity”. With “QVQLVESGGGLVQAGGSLRLSCAASGYIFDGNAMGWYRKAPGKERELVAPITWTGGSTYYADSVKGRFTISRDNAKNTVYLQMNSLKPEDTAVYYCAKPYDPGPYHSSYRATDDYWGQGTQVTVSS” the “polyreactivity (PSR sort gate)” value was “low polyreactivity”. In the case of “QVQLVESGGGLVQAGGSLRLSCAASGYIFDIYAMGWYRQAPGKERELVAVITRSGGGTYYADSVKGRFTISRDNAKNSVYLQMNSLKPEDTAVYYCAAESYVYGGSDYDYWGQGTQVTVSS”, the “polyreactivity (PSR sort gate)” value is reported as “low polyreactivity”. In the case of “QVQLVESGGGLVQAGGSLRLSCAASGYIFDRYAMGWYRQAPGKERELVAAISGRGGSTYYADSVKGRFTISRDNAKNTVSLQMNSLKPEDTAVYYCARDVYVRNGQRARYDSWGQGTQVTVSS”, the “polyreactivity (PSR sort gate)” value is reported as “high polyreactivity”. In the case of “QVQLVESGGGLVQAGGSLRLSCAASGYIFFFYAMGWYRQAPGKERELVASITYRGGSTYYADSVKGRFTISRDNAKNTVYLQMNSLKPEDTAVYYCNVDGGGPLGPQGFPFDYWGQGTQVTVSS”, the “polyreactivity (PSR sort gate)” value is reported as “low polyreactivity”. For “QVQLVESGGGLVQAGGSLRLSCAASGYIFFRNAMGWSRQAPGKEREFVADIRFSGGNTYYADSVKGRFTISRDNAKNTVYFQKISLKPEDTAVYYCSADLVYTYAYDYWGQGTQVTVSS”, the “polyreactivity (PSR sort gate)” value was “low polyreactivity”. For “QVQLVESGGGLVQAGGSLRLSCAASGYIFFTNAMGWYRQAPGKERELVAAISTIDGSTYYADSVKGRFTISRDNAKNTVYLQMNSLKPEDTAVYYCATDTPFISSLAYDYWGQGTQVTVSS”, the “polyreactivity (PSR sort gate)” value was “low polyreactivity”. With “QVQLVESGGGLVQAGGSLRLSCAASGYIFGFYAKGWYRQAPGKERELVARITYSGTSTYYADSVKGRFTISRDNAKNTVYLQMNSLKPEDTAVYYCAKRNKRSAWDSDEYDYWGQGTQVTVSS” the “polyreactivity (PSR sort gate)” value was “low polyreactivity”. In the case of “QVQLVESGGGLVQAGGSLRLSCAASGYIFGGYAMGWYRQAPGKERELVAGISIGVGSTYYADSVKGRFTISRDNAKNTVYLQMNSLKPEDTAVYYCNRDSVGYDYWGQGTQVTVSS”, the “polyreactivity (PSR sort gate)” value is reported as “low polyreactivity”. For “QVQLVESGGGLVQAGGSLRLSCAASGYIFGRNAMGWYRQAPGKERELVAVSSSRGSRTYYADSVKGRFTISRDNAKNTVYLQMNSLKPEDTAVYYCAVRGVVNFDYWGQGTQVTVSS”, the “polyreactivity (PSR sort gate)” value was “high polyreactivity”. With “QVQLVESGGGLVQAGGSLRLSCAASGYIFGVYTMGWYRQAPGKERELVAGISSGSSTYYADSVKGRFTISRDNAKNTVYLQMNSLKPEDTAVYYCAARERSRTYTSRKQVDYGYGYWGQGTQVTVSS” the “polyreactivity (PSR sort gate)” value was “low polyreactivity”. With “QVQLVESGGGLVQAGGSLRLSCAASGYIFHLYGMGWYRQAPGKERELVARISYRGGSTYYADSVKGRFTISRDNAKNTVYLQMNSLKTEDTAVYYCAKDYYKHYYWGQGTQVTVSS” the “polyreactivity (PSR sort gate)” value was “high polyreactivity”. For “QVQLVESGGGLVQAGGSLRLSCAASGYIFHSYMGSYRQAPGKETELVAAITSGGSTYYADSVKGRFTISRDNAKNTFFLKMNSLKPEDTAVYYCGAGWWYYLHMDYWGQGTQVTVSS”, the “polyreactivity (PSR sort gate)” value was “high polyreactivity”.
